These results are taken from US20250197519A1 (Xencor, published 2025).

As usually defined, the EC50 is the concentration needed to bring the measured effect to its halfway point. Read a low EC50 as an effect from little substance.

For experiment [1], the target named is CD20 on CD20+ Ramos B cells (human) (UniProt P11836). Briefly: flow cytometry on Ramos B cells, PE-conjugated goat anti-human IgG Fc secondary.
Experiment [2] concerns the target T1, CD20 on CD20+ Ramos B cells (human, UniProt P11836 1-297).
T1 construct: whole, on cells; also called human CD20
T1 sequence (looked up): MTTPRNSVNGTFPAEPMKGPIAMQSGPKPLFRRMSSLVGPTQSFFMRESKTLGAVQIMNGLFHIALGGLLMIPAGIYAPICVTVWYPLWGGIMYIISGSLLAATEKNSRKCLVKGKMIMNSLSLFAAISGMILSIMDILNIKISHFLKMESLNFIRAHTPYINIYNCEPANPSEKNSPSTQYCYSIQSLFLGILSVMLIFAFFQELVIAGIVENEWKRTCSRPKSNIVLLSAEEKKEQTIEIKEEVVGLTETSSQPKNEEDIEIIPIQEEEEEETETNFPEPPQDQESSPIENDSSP
Described as above. As to the method:
Next, binding of the improved CD20 mAb to CD20+ Ramos B cells was investigated. 1.5×10⁵ Ramos B cells were incubated with indicated concentrations of bivalent IgG1 mAb having either [CD20]H0L0 or optimized [CD20]_H1_L1 on ice for 1 hour. PE-conjugated goat anti-human IgG Fc was used as a secondary antibody to detect binding of the CD20 mAbs to the target cells.

For “bivalent IgG1 mAb having the rituximab Fv [CD20]_H0L0 (antibody)”, the EC50 in experiment [1] was found to be 0.264 µg/mL.

B1: bivalent IgG1 mAb having humanized/affinity-optimized [CD20]_H1_L1 Fv (antibody, V domains shown)
VH: QVQLVQSGAEVKKPGASVKVSCKASGYTFTSYNMHWVRQAPGQRLEWMGAIYPGNGATSYSQKFQGRVTITADTSASTAYMELSSLRSEDTAVYYCARSYYMGGDWYFDVWGAGTLVTVSS
VL: QIVLTQSPSSLSASVGDRVTITCRASWSVSYIHWFQQKPGKSPKPLIYATSNLASGVPVRFSGSGSGTDYTLTISSLQPEDFATYYCQQWTHNPPTFGGGTKVEIK
notes: also called improved CD20 mAb
In experiment [2], B1 had an EC50 of 0.175 µg/mL.
